Experimental data reported in publication PMC4520770.
pKd: −log10 of the molar value.

What was measured:
Assay in all cases: fluorescence polarisation
Bim_A2eT_E2gG = Bim_A2eT_E2gG (UniProt O43521)
KL6-7_Y4eK = molecular target: KL6-7_Y4eK
KL6-7_D3fA = molecular target: KL6-7_D3fA
BL6-22_Y4eK = molecular target: BL6-22_Y4eK
Bim_A2eT = Bim_A2eT (UniProt O43521)
Bim_R3bS = Bim_R3bS (UniProt O43521)
[1] = molecular target: Bim BH3 peptide (23 residues, fluoresceinated) (UniProt O43521)

Bcl-w (human), c-myc-tagged, sequence (Q92843 whole entry): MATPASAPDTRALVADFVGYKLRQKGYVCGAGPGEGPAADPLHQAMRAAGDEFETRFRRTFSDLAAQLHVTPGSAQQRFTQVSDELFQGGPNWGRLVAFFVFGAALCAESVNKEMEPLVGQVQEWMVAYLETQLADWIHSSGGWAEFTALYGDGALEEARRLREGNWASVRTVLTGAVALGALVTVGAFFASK
Bfl-1 (human), c-myc-tagged, sequence (Q16548 whole entry): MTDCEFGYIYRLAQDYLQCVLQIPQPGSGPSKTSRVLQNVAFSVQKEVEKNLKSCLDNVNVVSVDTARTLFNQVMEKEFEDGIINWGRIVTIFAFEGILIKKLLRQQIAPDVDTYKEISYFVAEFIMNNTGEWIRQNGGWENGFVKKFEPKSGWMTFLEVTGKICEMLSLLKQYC

Q: With “BHRF1 (Epstein-Barr virus Bcl-2 homolog), c-myc-tagged (from UniProt P03182 1-191) (natural protein)” as the substance, how does the pKd (Bim_A2eT_E2gG) read?
A: < 6.00

Q: And the pKd (KL6-7_Y4eK)?
A: < 6.00

Q: And the pKd (KL6-7_D3fA)?
A: < 6.00

Q: And the pKd (BL6-22_Y4eK)?
A: 7.52

Q: What about the pKd (Bim_A2eT) of the same substance?
A: 7.19

Q: With “Bcl-2 (human), c-myc-tagged (from UniProt P10415 1-239) (natural protein)” as the substance, how does the pKd (Bim_A2eT_E2gG) read?
A: 6.82

Q: And the pKd (Bim_A2eT)?
A: 7.36

Q: What about the pKd (Bim_R3bS) of the same substance?
A: 8.14

Q: What does the source list for “Bcl-w (human), c-myc-tagged (from UniProt Q92843 1-193) (natural protein)”?
A: pKd (Bim_A2eT_E2gG): 7.01; pKd (Bim_A2eT): 7.40; pKd (Bim_R3bS): 7.74

Q: With “Bcl-xL (human), c-myc-tagged (from UniProt Q07817-1 1-233) (natural protein)” as the substance, how does the pKd (Bim_A2eT_E2gG) read?
A: 7.38

Q: And the pKd (Bim_A2eT)?
A: 7.74

Q: What about the pKd (Bim_R3bS) of the same substance?
A: 8.42

Q: What does the source list for “Bfl-1 (human), c-myc-tagged (from UniProt Q16548 1-175) (natural protein)”?
A: pKd (Bim_A2eT_E2gG): 6.59; pKd (Bim_A2eT): 7.49; pKd (Bim_R3bS): 8.28

Q: Which results are given for “KSBcl-2 (Kaposi's sarcoma-associated herpesvirus Bcl-2 homolog), c-myc-tagged (from UniProt P90504 1-175) (natural protein)”?
A: pKd (Bim_A2eT_E2gG): 8.96; pKd (Bim_A2eT): 8.74; pKd (Bim_R3bS): 8.82

Q: Which results are given for “M11 (murine gamma herpesvirus γHV68 Bcl-2 homolog), BAP- and His6-tagged (from UniProt P89884 1-171) (natural protein)”?
A: pKd (Bim_A2eT_E2gG): 7.82; pKd (Bim_A2eT): 7.11

Q: With “Mcl-1 (human), c-myc-tagged (from UniProt Q07820 1-350) (natural protein)” as the substance, how does the pKd [1] read?
A: > 9.00

Q: What about the pKd (Bim_A2eT_E2gG) of the same substance?
A: 8.80

Q: What about the pKd (KL6-7_Y4eK) of the same substance?
A: 5.11

Q: And the pKd (KL6-7_D3fA)?
A: < 5.30

Q: What about the pKd (Bim_A2eT) of the same substance?
A: 9.21

Q: And the pKd (Bim_R3bS)?
A: > 9.00
